# US20180057590A1 (VAL CHUM LIMITED PARTNERSHIP, published 2018)
# T1: human Dual Ig domain containing cell adhesion molecule (DICAM) (human, UniProt Q9BRK3 20-442)
# T1 construct: Assayed as endogenous DICAM of THP-1 cells and TH17 lymphocytes, and as human DICAM from vector pCMV6-neo-DICAM in NIH3T3 and NS0 cells; It stood on the cell surface in flow cytometry and in cell lysate in Western blot; also called limitrin; Matrix-remodeling-associated protein 8
# T1 sequence: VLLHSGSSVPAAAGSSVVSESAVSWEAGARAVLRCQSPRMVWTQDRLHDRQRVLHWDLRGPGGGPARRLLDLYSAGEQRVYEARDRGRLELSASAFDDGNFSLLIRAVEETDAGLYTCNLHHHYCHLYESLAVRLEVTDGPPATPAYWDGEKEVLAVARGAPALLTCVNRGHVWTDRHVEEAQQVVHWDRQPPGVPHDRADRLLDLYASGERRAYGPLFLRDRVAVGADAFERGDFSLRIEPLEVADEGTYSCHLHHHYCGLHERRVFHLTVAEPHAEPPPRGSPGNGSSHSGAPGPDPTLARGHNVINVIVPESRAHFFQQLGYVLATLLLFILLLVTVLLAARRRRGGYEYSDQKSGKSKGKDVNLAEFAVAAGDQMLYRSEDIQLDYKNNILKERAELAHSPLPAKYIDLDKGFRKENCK
# Molecular target: T1, human Dual Ig domain containing cell …
# Test: Western blot (Table III)
# Description: THP-1 cells express DICAM as determined by qPCR and confirmed by WB (see Jung et al., Journal of Bone and Mineral Research, Vol. 27, No. 9, pp 2024-2034, 2012). THP-1 cell lysate (30 μg) were loaded on 12% SDS-PAGE gel and electrophoresed for 90 min at 100V and transferred to PVDF membranes. Hybridoma from clone 3C2, 2C11, 2H12, 9E9 and 1B2 (N-terminal DICAM epitope 57-71) or from clone 7F8, 1D9, 4B8 and 1D4 (C-terminal DICAM epitope 372-385) were incubated at 4° C. (50 μg/ml) for 12 h. Secondary antibody is goat anti-mouse pan-IgG coupled to HRP (1/2000 dilution). Actin is shown as a loading control. N=4
# Characterization of anti-DICAM antibodies by Western blot THP-1 and NIH3T3 cells transfected with human DICAM-encoding vector (pCMV6-neo) or with empty vector (pCMV6-neo) cell lysate ([…]) were loaded on 12% SDS-PAGE gel and electrophoresed for 90 min at 100V and transferred to PVDF membranes. […] N=4 by standard SDS-PAGE and immunoblots were analyzed with anti-DICAM (Goat; 1:100 dilution; sc-163102; Santa Cruz Biotechnology®); horseradish peroxidase-conjugated anti-goat (1:1,000 dilution; P00448; DakoCytomation®) and the ECL system (Amersham Biosciences®) were used to detect specific binding, and anti-actin (1:5,000 dilution; AC-15; MP Biomedicals®) served as a loading control. […]
binder,measurement,value
"anti-DICAM monoclonal antibody clone 9E9 (antibody, mouse IgG1, V domains shown, Mouse hybridoma antibody, murine IgG1 heavy chain and kappa light chain; also called mAb clone 9E9; hybridoma clone 9E9) VH: EVQLVESGGGLVKPGGSLKLSCAASGFTFISYAMSWVRQTPEKRLEWVATISSGGSYTYYPHSVKGRFTISRDNARNTLYLQMSSLRSEDTAMYYCARLDGPSYAMDYWGQGTSVTVS VL: QIVLTQSPAIMSAFLGEEITLTCSASSSVSYMHWYQQKSGTSPKLLIYSTSNLASGVPSRFSGSGSGTFYSLTISSVEAEDAADYYCHQWSSYRTFGGGTKLEIKR",binding result,binds
